What was measured:
[1] = target: T1, human TNFR1 on HeLa cells (human, UniProt P19438 30-455); experiment: cell-based or functional assay
T1 sequence (looked up): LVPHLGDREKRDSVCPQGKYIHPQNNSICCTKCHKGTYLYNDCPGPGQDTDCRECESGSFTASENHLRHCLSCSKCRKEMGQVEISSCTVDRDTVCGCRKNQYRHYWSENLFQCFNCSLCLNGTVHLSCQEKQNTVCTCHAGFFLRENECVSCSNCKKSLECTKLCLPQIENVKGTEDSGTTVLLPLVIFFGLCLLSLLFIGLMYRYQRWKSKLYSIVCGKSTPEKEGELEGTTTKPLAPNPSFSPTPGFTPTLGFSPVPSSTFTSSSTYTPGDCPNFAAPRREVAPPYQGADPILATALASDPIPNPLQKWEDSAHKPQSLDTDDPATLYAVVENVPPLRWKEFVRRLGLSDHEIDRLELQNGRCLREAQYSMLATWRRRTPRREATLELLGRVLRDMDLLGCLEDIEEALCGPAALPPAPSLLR

[2] = target: T2, TNF receptor 1 Fc fusion protein (R&D Systems) (human, UniProt P19438 30-211, limits assumed); experiment: receptor binding assay
T2 construct: bought; also called recombinant TNF receptor 1 (p55); TNFR1-Fc; not shown: Fc part of the bought fusion protein; not described
T2 sequence: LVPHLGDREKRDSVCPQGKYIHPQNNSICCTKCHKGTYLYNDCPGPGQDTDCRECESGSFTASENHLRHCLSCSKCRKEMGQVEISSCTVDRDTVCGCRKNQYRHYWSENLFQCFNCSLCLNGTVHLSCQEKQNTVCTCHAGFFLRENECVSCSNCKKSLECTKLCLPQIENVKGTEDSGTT

Binder | HeLa IL-8 Cell Assay, Activity (IC50) [1] [nM] | IC50 [2] [nM]
TAR2h-14 (other, anti-human TNFR1 dAb) EVQLLESGGGLVQPGGSLRLSCAASGFTFDQYDMSWVRQAPGKGLEWVSLIDPSGGHTYYADSVKGRFTISRNNSKNTLYLQMNSLRAEDTAVYYCAKPVFSDWPAVEFDYWGQGTLVTVSS | 300 | 30
TAR2h-10 (other, anti-human TNFR1 dAb; tied to the entry under the name TAR2-10; also called TAR2-10) EVQLLESGGGLVQPGGSLRLSCAASGFTFEWYWMGWVRQAPGKGLEWVSAISGSGGSTYYADSVKGRFTISRDNSKNTLYLQMNSLRAEDTAVYYCAKVKLGGGPNFDYWGQGTLVTVSS | 50 | 30
TAR2h-10-7 (other) EVQLLESGGGLVQPGGSLRLSCAASGFTFEWYWMGWVRQAPGKGLEWVSAISGSGGSTYYADSVKGRFTISRDNSKNTLYLQMNSLRAKDTAVYYCAKVKLGGGPNFDYRGQGTLVTVSS | 30 | 
TAR2h-10-55 (other) EVQLLESGGGLVQPGGSLRLSCAASGFPFEWYWMGWVRQAPGKGLEWVSAISGSGDSTYYADSVKGRFTISRDNSKNTLYQQMNSLRAEDAAVYYCAKVKLGGGPNFGYRGQGTLVTVSS | 20 | 

Results, then the binder that gave them:

HeLa IL-8 Cell Assay, Activity (IC50) [1] [nM] | IC50 [2] [nM] | Binder
3000 | 30 | TAR2h-27 (other, anti-human TNFR1 dAb) EVQLLESGGGLVQPGGSLRLSCAASGFTFTDYNMAWVRQAPGKGLEWVSFISQEGHHTYYADSVKGRFTISRDNSKNTLYLQMNSLRAEDTAVYYCAKFSTIATLSLFDYWGQGTLVTVSS
200 | 30 | TAR2h-16 (other, anti-human TNFR1 dAb) EVQLLESGGGLVQPGGSLRLSCAASGFTFGNYDMQWVRQAPGKGLEWVSSIDGTGGTTYYADSVKGRFTISRDNSKNTLYLQMNSLRAEDTAVYYCAQETNAFDYWGQGTLVTVSS
300 | 300 | TAR2h-29 (other, anti-human TNFR1 dAb) EVQLLESGGGLVQPGGSLRLSCAASGFTFATYNMGWVRQAPGKGLEWVSSIAWLGSETYYADSVKGRFTISRDNSKNTLYLQMNSLRAEDTAVYYCAKHCKAECTGDLFDYWGQGTLVTVSS
300 | 10 | TAR2h-44 (other, anti-human TNFR1 dAb) EVQLLESGGGLVQPGGSLRLSCAASGFTFLQYPMVWVRQAPGKGLEWVSSILAPGGPTYYADSVKGRFTISRDNSKNSLYLQMNSLRAEDTAVYYCAKHPTHTPHPNFDYWGQGTLVTVSS
10 | 15 | TAR2h-42 (other, anti-human TNFR1 dAb) EVQLLESGGGLVQPGGSLRLSCAASGFTFAKYNMYWVRQAPGKGLEWVSAISPKGQHTYYADSVKGRFTISRDNSKNTLYLQMNSLRAEDTAVYYCAEGMGSDAITFDYWGQGTLVTVSS
30 | 8 | TAR2h-41 (other, anti-human TNFR1 dAb) EVQLLESGGGLVQPGGSLRLSCAASGFTFDKYQMGWVRQAPGKGLEWVSFIDSNGHHTYYADSVKGRFTISRDNSKNTLYLQMNSLRAEDTAVYYCAELDNLSITPFDYWGQGTLVTVSS

Source: patent US20130022605A1 (published 2013)
